# B1: Pistol ribozyme (parent)
# chain: GGGUCGUUGUUCCAUAAUCGCGUGGAUAUGGCACGCAAGUUUCUACCGGGCACCGUAAAUGUCCGACUGGAGCCGUUCGGGCGGCUAUAAACAGACCUCAGGCCCGAAGCGUGGCGGCACCUGCCGCCGGUGGUAAAAAAGAUCGGAAGAGCACACGUCU
# Variants of: B1
# Experiment: aptazyme ON/OFF ratio, guanine; higher = stronger switching; co-transcriptional cleavage with and without guanine
row,Variant,aptazyme ON/OFF ratio
1,U7G U8G G9C U10C C12U C13G,1.36
2,U7A G9C U10C U11C C12U C13U,0.994
3,U8G G9A U10C U11A C12U C13A,1.04
4,U7C U8C G9A U10A U11C C13U,1.11
5,U7G U10C U11C C12A C13U,1.11
6,U7G U8G U11G C12A C13U,1.35
7,U7G U8G U11G C12A C13A,1.24
8,U8C U10C U11C C12A C13U,1.36
9,U7G U8A G9U U10A U11G C12A C13U,1.09
10,U7A U8C G9A U11C C13A,1.06
11,U8C G9A C12A,1.35
12,U7C U8C G9C C12G C13U,1.07
13,U8C G9U U10A C12G C13G,1.13
14,U7G U8C G9U U11C C12G C13G,1.32
15,U7G U8C G9C U10A C12U,1.06
16,U7G U8C G9C U10A C12G,1.25
17,U7G U8G G9U U11A C12U,1.54
18,U8G U10A U11A C12A C13U,1.13
19,U7G U8C G9A U11C C12U C13G,1.12
20,U7A U8A G9A U10A C12G C13G,1.15
21,U8G U10A U11G C13A,1.08

row,Variant,aptazyme ON/OFF ratio
1,G9A U10G C13A,1.3
2,U7A U8G G9C U11G C12U C13G,1.41
3,U7G C12U C13A,1.21
4,U10G U11G C13A,1.26
5,U7A U8C U10C C13U,2.97
6,U8A G9C U10G U11A C12A,1.31
7,U7G U8A G9U U11G C13A,1.07
8,U8C U10A U11C C12G C13U,1.2
9,U7A U8G G9C U11A C12U C13A,1.4
10,G9A U10G U11G C13A,1.2
11,U7A U8G U10C U11A C13G,1.21
12,U7A U10C U11A C12U,1.3
13,U8G G9C U10A U11A C12A C13G,1.09
14,U7C U8C G9C U10G C12U C13G,1.09
15,U7A G9U U11C C13U,1.12
16,U7A G9U U11C C13G,1.08
17,U8G G9U U10A U11G C12A C13A,1.05
18,U7G G9A U11A C12A C13U,1.15
19,U7A G9A U10G U11A C12U,1.05
20,U10C U11G C13A,1.27
21,U7C U8C U11C C12U C13A,1.37

row,Variant,aptazyme ON/OFF ratio
1,U7C U8A G9A U11G C12G,1.12
2,G9U U11C C12A,2
3,U7G U8A U10G U11C C13G,1.16
4,U7C U8C U10G C13G,1.08
5,U7G U8G G9A U10C U11G C12U C13U,1.38
6,G9U U11G C12U C13G,1.43
7,U7C G9U U10G U11A C12U,1.08
8,U7G G9C U10G U11G C12A,1.05
9,U7C U8C G9U U10C U11G C12G C13U,1.08
10,U8A G9C U10A U11G C13G,1.04
11,U7G U8A C12G,1.35
12,U7G U8A G9U U10A U11A C12G C13A,1.05
13,U7G U8A G9U U10A U11A C12G C13U,1.06
14,U7A U8C G9U U10G U11A C12U C13G,1.09
15,U8C U10C U11C,1.85
16,U7C U8G G9U U11G C12U C13G,1.23
17,U7G U8A U10G U11G C12G,1.5
18,U7A U8C G9A U10G C12U,1.23
19,U7A U10C U11C C13A,1.03
20,U7C U8A G9C U10C U11A C12G C13A,1.1
21,U8G G9A U10A U11C C12A C13A,1.21

row,Variant,aptazyme ON/OFF ratio
1,U7C U8C G9C U10G U11C,1.5
2,U8A G9U U10A U11G C13U,1.25
3,U7C U8A U11A C13G,1.08
4,U7A G9U U10A U11G C12G C13U,1.18
5,U7C G9U U10C U11C C12G,1.02
6,U7C U8A G9C U10A U11A C13G,1.15
7,U7A G9C U10A U11A C12A C13A,1.13
8,G9C U10G U11G,1.09
9,U7A U8A G9A U10C U11A C13G,1.09
10,G9A U10C C12U C13U,1.34
11,U8A U11G C12A C13G,1.17
12,U7C U8G G9U U10A U11C C12G C13U,1.19
13,U7G U8G U10G U11C C12A C13G,1.3
14,U7C,1.31
15,U7C U8A G9U U10G U11G C12A C13G,1.11
16,U7C U8G C12U C13G,1.18
17,U7A U8G U11C C12U C13A,1.43
18,U8G G9A U10A,1.24
19,U7A U8G G9A U10C C13G,1.1
20,U7A U8G G9A U11A C12U C13A,1.37

# Reference: the RNAGym collection of RNA variant scans (doi:10.1021/acssynbio.7b00057)
